Data published in paper PMC4361618, “Nab3 Facilitates the Function of the TRAMP Complex in RNA Processing via Recruitment of Rrp6 Independent of Nrd1” (PLoS Genetics, 2015).

B3: His-tagged full-length Rrp6 (enzyme, S. cerevisiae, UniProt Q12149 1-733, looked up)
chain: MTSENPDVLLSRVINVVRAASSLASQDVDFYKNLDRGFSKDLKSKADKLADMANEIILSIDEHHESFELKEEDISDLWNNFGNIMDNLLEMSDHSLDKLNCAINSKSRGSDLQYLGEFSGKNFSPTKRVEKPQLKFKSPIDNSESHPFIPLLKEKPNALKPLSESLRLVDDDENNPSHYPHPYEYEIDHQEYSPEILQIREEIPSKSWDDSVPIWVDTSTELESMLEDLKNTKEIAVDLEHHDYRSYYGIVCLMQISTRERDYLVDTLKLRENLHILNEVFTNPSIVKVFHGAFMDIIWLQRDLGLYVVGLFDTYHASKAIGLPRHSLAYLLENFANFKTSKKYQLADWRIRPLSKPMTAYARADTHFLLNIYDQLRNKLIESNKLAGVLYESRNVAKRRFEYSKYRPLTPSSEVYSPIEKESPWKILMYQYNIPPEREVLVRELYQWRDLIARRDDESPRFVMPNQLLAALVAYTPTDVIGVVSLTNGVTEHVRQNAKLLANLIRDALRNIKNTNEEATPIPSSETKADGILLETISVPQIRDVMERFSVLCNSNISKSRAKPVTNSSILLGKILPREEHDIAYSKDGLPNKVKTEDIRIRAQNFKSALANLEDIIFEIEKPLVVPVKLEEIKTVDPASAPNHSPEIDNLDDLVVLKKKNIQKKQPAKEKGVTEKDAVDYSKIPNILSNKPGQNNRQQKKRRFDPSSSDSNGPRAAKKRRPAAKGKNLSFKR
notes: Rrp6, S. cerevisiae nuclear exosome 3'-5' riboexonuclease, full length, cloned into pET30a-TEV; also called His-Rrp6; His6-RRP6; source: E. coli DE3 cells, purified (nickel-NTA agarose, batch)

Key:
[1] = target: B3; test: pull-down; 8 μg purified GST fusion incubated with 14 μg purified His-Rrp6 and glutathione Sepharose 4B in IPP100 buffer (10 mM Tris-HCl pH 8, 100 mM NaCl, 0.1% NP-40) with 10 mg/ml BSA, 2 mM DTT, 2 hr at 4°C; anti-His immunoblot; details: both partners purified
TAP-tagged Nrd1 = target: T1, TAP-tagged Nrd1 (S. cerevisiae, UniProt P53617 1-575); test: co-IP; TAP-tagged Nrd1 precipitated on IgG Sepharose beads from lysates of NRD1-TAP yeast cells expressing Myc-tagged Nab3 proteins; IPP150 buffer (10 mM Tris-HCl pH 8, 150 mM NaCl, 0.1% NP-40), overnight at 4°C; anti-Myc immunoblot; % bound relative to input and to bound wild-type Nab3; details: partners not purified
T1 construct: also called Nrd1-TAP; source: S. cerevisiae NRD1-TAP strain (ACY2293; Thermo Scientific Open Biosystems), in lysate
T1 sequence (looked up): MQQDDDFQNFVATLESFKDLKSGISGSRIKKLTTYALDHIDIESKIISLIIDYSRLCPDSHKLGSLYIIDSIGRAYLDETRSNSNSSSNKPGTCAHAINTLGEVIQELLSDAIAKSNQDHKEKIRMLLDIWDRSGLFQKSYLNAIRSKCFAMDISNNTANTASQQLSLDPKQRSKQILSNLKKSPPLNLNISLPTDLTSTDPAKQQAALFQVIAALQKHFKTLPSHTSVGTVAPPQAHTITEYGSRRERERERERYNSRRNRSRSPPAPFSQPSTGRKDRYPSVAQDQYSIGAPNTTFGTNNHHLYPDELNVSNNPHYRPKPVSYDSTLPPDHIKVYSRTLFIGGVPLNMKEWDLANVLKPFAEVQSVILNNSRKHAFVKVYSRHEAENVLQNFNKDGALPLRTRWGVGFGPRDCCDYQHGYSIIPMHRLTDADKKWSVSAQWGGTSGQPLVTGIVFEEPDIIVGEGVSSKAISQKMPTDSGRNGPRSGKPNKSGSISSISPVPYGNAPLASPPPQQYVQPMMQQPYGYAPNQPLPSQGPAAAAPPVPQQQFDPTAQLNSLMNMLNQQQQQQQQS

[2] = target: T2, recombinant GST-tagged full-length Nab3 (S. cerevisiae, UniProt P38996 1-802); test: pull-down; 8 μg purified GST fusion incubated with 14 μg purified His-Rrp6 and glutathione Sepharose 4B in IPP100 buffer (10 mM Tris-HCl pH 8, 100 mM NaCl, 0.1% NP-40) with 10 mg/ml BSA, 2 mM DTT, 2 hr at 4°C; anti-His immunoblot; details: both partners purified
T2 construct: Nab3, S. cerevisiae, full length, cloned into pGEX-TEV; also called GST-Nab3; source: E. coli DE3 cells, purified (glutathione Sepharose 4B, batch)
T2 sequence (looked up): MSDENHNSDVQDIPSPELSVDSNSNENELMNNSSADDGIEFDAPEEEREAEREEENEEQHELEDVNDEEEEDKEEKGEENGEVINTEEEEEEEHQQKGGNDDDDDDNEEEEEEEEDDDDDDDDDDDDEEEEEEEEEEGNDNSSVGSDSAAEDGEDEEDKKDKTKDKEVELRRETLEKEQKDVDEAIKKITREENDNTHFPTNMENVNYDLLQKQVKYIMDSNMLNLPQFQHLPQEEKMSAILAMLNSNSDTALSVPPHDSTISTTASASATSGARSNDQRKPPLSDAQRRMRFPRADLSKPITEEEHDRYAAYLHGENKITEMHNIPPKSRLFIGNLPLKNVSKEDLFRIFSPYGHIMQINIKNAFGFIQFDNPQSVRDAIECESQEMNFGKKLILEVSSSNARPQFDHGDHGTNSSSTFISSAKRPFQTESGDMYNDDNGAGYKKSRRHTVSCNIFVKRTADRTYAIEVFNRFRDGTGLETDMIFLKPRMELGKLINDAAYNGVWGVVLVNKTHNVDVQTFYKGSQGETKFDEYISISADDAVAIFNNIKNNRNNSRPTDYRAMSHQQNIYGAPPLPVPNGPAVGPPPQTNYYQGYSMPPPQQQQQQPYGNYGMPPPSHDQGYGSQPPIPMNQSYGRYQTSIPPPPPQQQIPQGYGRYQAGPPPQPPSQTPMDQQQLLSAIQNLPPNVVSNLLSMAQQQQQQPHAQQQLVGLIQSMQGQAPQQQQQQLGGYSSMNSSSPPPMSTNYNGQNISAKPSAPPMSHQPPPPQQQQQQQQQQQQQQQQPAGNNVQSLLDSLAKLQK

B1: GST-tagged Rrp47 (natural protein, S. cerevisiae, UniProt P38801 1-184, looked up)
chain: MEDIEKIKPYVRSFSKALDELKPEIEKLTSKSLDEQLLLLSDERAKLELINRYAYVLSSLMFANMKVLGVKDMSPILGELKRVKSYMDKAKQYDNRITKSNEKSQAEQEKAKNIISNVLDGNKNQFEPSISRSNFQGKHTKFENDELAESTTTKIIDSTDHIRKASSKKSKRLDKVGKKKGGKK
notes: Rrp47, S. cerevisiae exosome cofactor; RRP47 gene amplified (W303 gDNA template) and cloned into pGEX-TEV; also called GST-Rrp47; source: E. coli DE3 cells, purified (glutathione Sepharose 4B, batch)
[1]
  binding result: binds

B2: Myc-tagged nab3-ΔNBD mutant (Δ204–248) (natural protein, S. cerevisiae, UniProt P38996 1-802, looked up)
chain: MSDENHNSDVQDIPSPELSVDSNSNENELMNNSSADDGIEFDAPEEEREAEREEENEEQHELEDVNDEEEEDKEEKGEENGEVINTEEEEEEEHQQKGGNDDDDDDNEEEEEEEEDDDDDDDDDDDDEEEEEEEEEEGNDNSSVGSDSAAEDGEDEEDKKDKTKDKEVELRRETLEKEQKDVDEAIKKITREENDNTHFPTNMSDTALSVPPHDSTISTTASASATSGARSNDQRKPPLSDAQRRMRFPRADLSKPITEEEHDRYAAYLHGENKITEMHNIPPKSRLFIGNLPLKNVSKEDLFRIFSPYGHIMQINIKNAFGFIQFDNPQSVRDAIECESQEMNFGKKLILEVSSSNARPQFDHGDHGTNSSSTFISSAKRPFQTESGDMYNDDNGAGYKKSRRHTVSCNIFVKRTADRTYAIEVFNRFRDGTGLETDMIFLKPRMELGKLINDAAYNGVWGVVLVNKTHNVDVQTFYKGSQGETKFDEYISISADDAVAIFNNIKNNRNNSRPTDYRAMSHQQNIYGAPPLPVPNGPAVGPPPQTNYYQGYSMPPPQQQQQQPYGNYGMPPPSHDQGYGSQPPIPMNQSYGRYQTSIPPPPPQQQIPQGYGRYQAGPPPQPPSQTPMDQQQLLSAIQNLPPNVVSNLLSMAQQQQQQPHAQQQLVGLIQSMQGQAPQQQQQQLGGYSSMNSSSPPPMSTNYNGQNISAKPSAPPMSHQPPPPQQQQQQQQQQQQQQQQPAGNNVQSLLDSLAKLQK
notes: also called nab3 NBD mutant; nab3-NBD; source: S. cerevisiae (NRD1-TAP, RRP6-TAP or DIS3-TAP cells), 2μ URA3 plasmid, in lysate; not shown: 2xMyc, C-terminal, kept
TAP-tagged Nrd1
  % bound relative to wild-type Nab3: 8%

## B3
[2]
  binding result: binds
